According to paper PMC4961411:
Where “and” joins values, the source holds several entries; their conditions need not be identical. Identical values can stand only once.

Legend:
[1] = target: 6xHis-YlfA 128–425 (Legionella pneumophila); assay: SDS-PAGE and immunoblot of gel filtration peak fractions, boiled
[2] = target: 6xHis-YlfA 128–425 (Legionella pneumophila); assay: SDS-PAGE and immunoblot of gel filtration peak fractions, not boiled
[3] = target: 6xHis-YlfB 131–405 (Legionella pneumophila); assay: SDS-PAGE and immunoblot of gel filtration peak fractions, boiled
[4] = target: 6xHis-YlfB 131–405 (Legionella pneumophila); assay: SDS-PAGE and immunoblot of gel filtration peak fractions, not boiled

## 6xHis-YlfA 128–425 (domain or fragment)
[1]
  stoichiometry N: 2
[2]
  stoichiometry N: 2 and 3

## 6xHis-YlfB 131–405 (domain or fragment)
[3]
  stoichiometry N: 2
[4]
  stoichiometry N: 2 and 3
